Assay [1] concerns MDA-MB-231 cancer cell line. Put plainly: Apoptosis by annexin V/propodium iodide flow cytometry. It is filed as cell-based, human. The conditions noted are these: MDA-MB-231, 24 h, annexin V/PI. (In general: Flow cytometry measures light scatter and fluorescence of single cells or particles in a stream.)
For assay [2], the target named is XIAP BIR2-only protein (residues 120–240) (human) (UniProt P98170). The assay is described as follows: fluorescence polarisation. (Polarisation of emitted light reports the rotation of a fluorescent probe.)
Assay [3] concerns the target XIAP BIR3-only protein (residues 241–356) (human) (UniProt P98170). The assay is described as follows: fluorescence polarisation.
In assay [4] the target is XIAP linker–BIR2–BIR3 protein (residues 120–356) (human) (UniProt P98170). Put plainly: fluorescence polarisation.

Turning to `COC(=O)CC[C@H](NC(=O)[C@H](CC(=O)OC)NC(=O)OCc1ccccc1)C(=O)N[C@H](C(=O)N[C@@H](CC(=O)OC)C(=O)CF)C(C)C` [Z-DEVD-FMK], in assay [1], the induction of apoptosis result is “no effect on cells”.

Regarding “compound 2 (monovalent Smac mimetic, N-methyl-AKPF) (peptide)”, the Ki (usually the equilibrium dissociation constant of an inhibitor or competing ligand from its target) came to 11700 nM in assay [2], 86 nM in assay [3] and 900 nM in assay [4].

(Values after article PMC2784912 (Biochemistry, 2008).)
